Results published in US20070078092A1 (CUREGENICS, published 2007).
Numbered stars: 1 amine (or outer) side, 2 acyl side, 3 side chain; on linkers, the order of the positions; unused ones are H or OH. Square brackets hold non-standard residues; d marks the D form. * marks the point of attachment. Cholesteryloxycarbonyl = CC(C)CCC[C@@H](C)[C@H]1CC[C@H]2[C@@H]3CC=C4C[C@@H](OC(=O)*)CC[C@]4(C)[C@H]3CC[C@]12C; Ser(Me) = COC[C@H](N[*:1])C(=O)[*:2]; hLeu = CC(C)CC[C@H](N)C(=O)O; Orn = NCCC[C@H](N)C(=O)O; Nva = CCC[C@H](N)C(=O)O; Dap = NC[C@H](N)C(=O)O

B1: PTR 6332 (peptide)
peptide: Cholesteryloxycarbonyl-GGGGRPR[Nva]Y[Dap][hLeu]-NH2
SMILES: CCC[C@H](NC(=O)[C@H](CCCNC(=N)N)NC(=O)[C@@H]1CCCN1C(=O)[C@H](CCCNC(=N)N)NC(=O)CNC(=O)CNC(=O)CNC(=O)CNC(=O)O[C@H]1CC[C@@]2(C)C(=CC[C@H]3[C@@H]4CC[C@H]([C@H](C)CCCC(C)C)[C@@]4(C)CC[C@@H]32)C1)C(=O)N[C@@H](Cc1ccc(O)cc1)C(=O)N[C@@H](CN)C(=O)N[C@@H](CCC(C)C)C(N)=O
B2: PTR 6334 (peptide)
peptide: Cholesteryloxycarbonyl-GGGGGRPR[Nva]Y[Dap][hLeu]-NH2
SMILES: CCC[C@H](NC(=O)[C@H](CCCNC(=N)N)NC(=O)[C@@H]1CCCN1C(=O)[C@H](CCCNC(=N)N)NC(=O)CNC(=O)CNC(=O)CNC(=O)CNC(=O)CNC(=O)O[C@H]1CC[C@@]2(C)C(=CC[C@H]3[C@@H]4CC[C@H]([C@H](C)CCCC(C)C)[C@@]4(C)CC[C@@H]32)C1)C(=O)N[C@@H](Cc1ccc(O)cc1)C(=O)N[C@@H](CN)C(=O)N[C@@H](CCC(C)C)C(N)=O
B3: PTR 6336 (peptide)
peptide: Cholesteryloxycarbonyl-GGGGGGRPR[Nva]Y[Dap][hLeu]-NH2
SMILES: CCC[C@H](NC(=O)[C@H](CCCNC(=N)N)NC(=O)[C@@H]1CCCN1C(=O)[C@H](CCCNC(=N)N)NC(=O)CNC(=O)CNC(=O)CNC(=O)CNC(=O)CNC(=O)CNC(=O)O[C@H]1CC[C@@]2(C)C(=CC[C@H]3[C@@H]4CC[C@H]([C@H](C)CCCC(C)C)[C@@]4(C)CC[C@@H]32)C1)C(=O)N[C@@H](Cc1ccc(O)cc1)C(=O)N[C@@H](CN)C(=O)N[C@@H](CCC(C)C)C(N)=O
B4: PTR 6338 (peptide)
peptide: Cholesteryloxycarbonyl-[dK][dK][dK][dK][dK][dK]RPR[Nva]Y[Ser(Me)][hLeu]-NH2
SMILES: CCC[C@H](NC(=O)[C@H](CCCNC(=N)N)NC(=O)[C@@H]1CCCN1C(=O)[C@H](CCCNC(=N)N)NC(=O)[C@@H](CCCCN)NC(=O)[C@@H](CCCCN)NC(=O)[C@@H](CCCCN)NC(=O)[C@@H](CCCCN)NC(=O)[C@@H](CCCCN)NC(=O)[C@@H](CCCCN)NC(=O)O[C@H]1CC[C@@]2(C)C(=CC[C@H]3[C@@H]4CC[C@H]([C@H](C)CCCC(C)C)[C@@]4(C)CC[C@@H]32)C1)C(=O)N[C@@H](Cc1ccc(O)cc1)C(=O)N[C@@H](COC)C(=O)N[C@@H](CCC(C)C)C(N)=O
B5: PTR 6344 (peptide)
peptide: Cholesteryloxycarbonyl-KKKRPR[Nva]Y[Dap][hLeu]-NH2
SMILES: CCC[C@H](NC(=O)[C@H](CCCNC(=N)N)NC(=O)[C@@H]1CCCN1C(=O)[C@H](CCCNC(=N)N)NC(=O)[C@H](CCCCN)NC(=O)[C@H](CCCCN)NC(=O)[C@H](CCCCN)NC(=O)O[C@H]1CC[C@@]2(C)C(=CC[C@H]3[C@@H]4CC[C@H]([C@H](C)CCCC(C)C)[C@@]4(C)CC[C@@H]32)C1)C(=O)N[C@@H](Cc1ccc(O)cc1)C(=O)N[C@@H](CN)C(=O)N[C@@H](CCC(C)C)C(N)=O
B6: PTR 6346 (peptide)
peptide: Cholesteryloxycarbonyl-RPR[Nva]Y[Dap][hLeu][dK][dK][dK]-NH2
SMILES: CCC[C@H](NC(=O)[C@H](CCCNC(=N)N)NC(=O)[C@@H]1CCCN1C(=O)[C@H](CCCNC(=N)N)NC(=O)O[C@H]1CC[C@@]2(C)C(=CC[C@H]3[C@@H]4CC[C@H]([C@H](C)CCCC(C)C)[C@@]4(C)CC[C@@H]32)C1)C(=O)N[C@@H](Cc1ccc(O)cc1)C(=O)N[C@@H](CN)C(=O)N[C@@H](CCC(C)C)C(=O)N[C@H](CCCCN)C(=O)N[C@H](CCCCN)C(=O)N[C@H](CCCCN)C(N)=O
B7: PTR 6348 (peptide)
peptide: Cholesteryloxycarbonyl-[dK][dK][dK]RPR[Nva]Y[Ser(Me)][hLeu]-NH2
SMILES: CCC[C@H](NC(=O)[C@H](CCCNC(=N)N)NC(=O)[C@@H]1CCCN1C(=O)[C@H](CCCNC(=N)N)NC(=O)[C@@H](CCCCN)NC(=O)[C@@H](CCCCN)NC(=O)[C@@H](CCCCN)NC(=O)O[C@H]1CC[C@@]2(C)C(=CC[C@H]3[C@@H]4CC[C@H]([C@H](C)CCCC(C)C)[C@@]4(C)CC[C@@H]32)C1)C(=O)N[C@@H](Cc1ccc(O)cc1)C(=O)N[C@@H](COC)C(=O)N[C@@H](CCC(C)C)C(N)=O
B8: PTR 6352 (peptide)
peptide: Cholesteryloxycarbonyl-KKKRPR[Nva]Y[Dap][hLeu]-OH
SMILES: CCC[C@H](NC(=O)[C@H](CCCNC(=N)N)NC(=O)[C@@H]1CCCN1C(=O)[C@H](CCCNC(=N)N)NC(=O)[C@H](CCCCN)NC(=O)[C@H](CCCCN)NC(=O)[C@H](CCCCN)NC(=O)O[C@H]1CC[C@@]2(C)C(=CC[C@H]3[C@@H]4CC[C@H]([C@H](C)CCCC(C)C)[C@@]4(C)CC[C@@H]32)C1)C(=O)N[C@@H](Cc1ccc(O)cc1)C(=O)N[C@@H](CN)C(=O)N[C@@H](CCC(C)C)C(=O)O
B9: PTR 6356 (peptide)
peptide: {Cholesteryl‑O‑CO‑(CH2)2‑CO}-[dK][dK][dK]RPR[Nva]Y[Dap][hLeu]-NH2
B10: PTR 6366 (peptide)
peptide: XPRXYXX
modifications: Nva, Dap, Hol; C-terminal NH2
B11: PTR 6368 (peptide)
peptide: H-RPH[Nva]Y[Dap][hLeu]-NH2
SMILES: CCC[C@H](NC(=O)[C@H](Cc1c[nH]cn1)NC(=O)[C@@H]1CCCN1C(=O)[C@@H](N)CCCNC(=N)N)C(=O)N[C@@H](Cc1ccc(O)cc1)C(=O)N[C@@H](CN)C(=O)N[C@@H](CCC(C)C)C(N)=O
B12: PTR 6370 (peptide)
peptide: XPHXYXX
modifications: Nva, Dap, Hol; C-terminal NH2
B13: PTR 6372 (peptide)
peptide: H-RP[Orn][Nva]Y[Dap][hLeu]-NH2
SMILES: CCC[C@H](NC(=O)[C@H](CCCN)NC(=O)[C@@H]1CCCN1C(=O)[C@@H](N)CCCNC(=N)N)C(=O)N[C@@H](Cc1ccc(O)cc1)C(=O)N[C@@H](CN)C(=O)N[C@@H](CCC(C)C)C(N)=O
B14: PTR 6374 (peptide)
peptide: XPRXYXX
modifications: N-terminal Cholesteryl-O-CO-; Nva, Dap, Hol; C-terminal NH2
B15: PTR 6376 (peptide)
peptide: Cholesteryloxycarbonyl-RPH[Nva]Y[Dap][hLeu]-NH2
SMILES: CCC[C@H](NC(=O)[C@H](Cc1c[nH]cn1)NC(=O)[C@@H]1CCCN1C(=O)[C@H](CCCNC(=N)N)NC(=O)O[C@H]1CC[C@@]2(C)C(=CC[C@H]3[C@@H]4CC[C@H]([C@H](C)CCCC(C)C)[C@@]4(C)CC[C@@H]32)C1)C(=O)N[C@@H](Cc1ccc(O)cc1)C(=O)N[C@@H](CN)C(=O)N[C@@H](CCC(C)C)C(N)=O
B16: PTR 6380 (peptide)
peptide: H-[Orn]PR[Nva]Y[Dap][hLeu]-NH2
SMILES: CCC[C@H](NC(=O)[C@H](CCCNC(=N)N)NC(=O)[C@@H]1CCCN1C(=O)[C@@H](N)CCCN)C(=O)N[C@@H](Cc1ccc(O)cc1)C(=O)N[C@@H](CN)C(=O)N[C@@H](CCC(C)C)C(N)=O
B17: PTR 6382 (peptide)
peptide: Cholesteryloxycarbonyl-[Orn]PR[Nva]Y[Dap][hLeu]-NH2
SMILES: CCC[C@H](NC(=O)[C@H](CCCNC(=N)N)NC(=O)[C@@H]1CCCN1C(=O)[C@H](CCCN)NC(=O)O[C@H]1CC[C@@]2(C)C(=CC[C@H]3[C@@H]4CC[C@H]([C@H](C)CCCC(C)C)[C@@]4(C)CC[C@@H]32)C1)C(=O)N[C@@H](Cc1ccc(O)cc1)C(=O)N[C@@H](CN)C(=O)N[C@@H](CCC(C)C)C(N)=O
B18: PTR 6384 (peptide)
peptide: H-[Orn]P[Orn][Nva]Y[Dap][hLeu]-NH2
SMILES: CCC[C@H](NC(=O)[C@H](CCCN)NC(=O)[C@@H]1CCCN1C(=O)[C@@H](N)CCCN)C(=O)N[C@@H](Cc1ccc(O)cc1)C(=O)N[C@@H](CN)C(=O)N[C@@H](CCC(C)C)C(N)=O
B19: PTR 6386 (peptide)
peptide: Cholesteryloxycarbonyl-[Orn]P[Orn][Nva]Y[Dap][hLeu]-NH2
SMILES: CCC[C@H](NC(=O)[C@H](CCCN)NC(=O)[C@@H]1CCCN1C(=O)[C@H](CCCN)NC(=O)O[C@H]1CC[C@@]2(C)C(=CC[C@H]3[C@@H]4CC[C@H]([C@H](C)CCCC(C)C)[C@@]4(C)CC[C@@H]32)C1)C(=O)N[C@@H](Cc1ccc(O)cc1)C(=O)N[C@@H](CN)C(=O)N[C@@H](CCC(C)C)C(N)=O
B20: PTR 6388 (peptide)
peptide: Cholesteryloxycarbonyl-RP[Orn][Nva]Y[Dap][hLeu]-NH2
SMILES: CCC[C@H](NC(=O)[C@H](CCCN)NC(=O)[C@@H]1CCCN1C(=O)[C@H](CCCNC(=N)N)NC(=O)O[C@H]1CC[C@@]2(C)C(=CC[C@H]3[C@@H]4CC[C@H]([C@H](C)CCCC(C)C)[C@@]4(C)CC[C@@H]32)C1)C(=O)N[C@@H](Cc1ccc(O)cc1)C(=O)N[C@@H](CN)C(=O)N[C@@H](CCC(C)C)C(N)=O
B21: PTR 6390 (peptide)
peptide: Cholesteryloxycarbonyl-RPR[Nva]Y[Dap]-OH
SMILES: CCC[C@H](NC(=O)[C@H](CCCNC(=N)N)NC(=O)[C@@H]1CCCN1C(=O)[C@H](CCCNC(=N)N)NC(=O)O[C@H]1CC[C@@]2(C)C(=CC[C@H]3[C@@H]4CC[C@H]([C@H](C)CCCC(C)C)[C@@]4(C)CC[C@@H]32)C1)C(=O)N[C@@H](Cc1ccc(O)cc1)C(=O)N[C@@H](CN)C(=O)O
B22: PTR 6392 (peptide)
peptide: {Coumarin‑3‑oyl}-RPR[Nva]Y[Dap][hLeu]-NH2

Target: protein kinase B (PKB)
Assay: cell-based or functional assay

For B1, which “IC50, in vitro kinase assay PKB” value is on record?
Its value is 1000 nM.

With B2 as the binder, how does the “IC50, in vitro kinase assay PKB” value read?
Its value is 1000 nM.

With B3 as the binder, how does the “IC50, in vitro kinase assay PKB” value read?
The value was 1000 nM.

How did the “IC50, in vitro kinase assay PKB” value turn out when B4 was run?
Its value is 100 nM.

B5 was tested. Which “IC50, in vitro kinase assay PKB” value did it give?
Its value is 300 nM.

B6 was tested. Which “IC50, in vitro kinase assay PKB” value did it give?
Its value is 200 nM.

For B7, which “IC50, in vitro kinase assay PKB” value is on record?
The value was 200 nM.

Which “IC50, in vitro kinase assay PKB” value does the source give for B8 here?
Its value is 200 nM.

How did the “IC50, in vitro kinase assay PKB” value turn out when B9 was run?
The value was 170 nM.

Which “IC50, in vitro kinase assay PKB” value does the source give for B10 here?
Its value is over 10000 nM.

B11 was tested. Which “IC50, in vitro kinase assay PKB” value did it give?
Its value is over 10000 nM.

How did the “IC50, in vitro kinase assay PKB” value turn out when B12 was run?
The value was over 10000 nM.

How did the “IC50, in vitro kinase assay PKB” value turn out when B13 was run?
Its value is over 10000 nM.

B14 was tested. Which “IC50, in vitro kinase assay PKB” value did it give?
The value was 1400 nM.

How did the “IC50, in vitro kinase assay PKB” value turn out when B15 was run?
Its value is 2000 nM.

B16 was tested. Which “IC50, in vitro kinase assay PKB” value did it give?
The value was over 10000 nM.

Which “IC50, in vitro kinase assay PKB” value does the source give for B17 here?
Its value is 360 nM.

B18 was tested. Which “IC50, in vitro kinase assay PKB” value did it give?
The value was over 10000 nM.

Which “IC50, in vitro kinase assay PKB” value does the source give for B19 here?
Its value is 2000 nM.

With B20 as the binder, how does the “IC50, in vitro kinase assay PKB” value read?
Its value is 2000 nM.

How did the “IC50, in vitro kinase assay PKB” value turn out when B21 was run?
The value was 2000 nM.

How did the “IC50, in vitro kinase assay PKB” value turn out when B22 was run?
Its value is 5000 nM.
